Values joined by “and” are separate entries in the source; they are usually repeats but may differ in a detail not shown here. Equal entries are not always repeated.

Assay [1] deals with T1, LILRA1 expressed on cells (human, UniProt O75019 17-489).
T1 construct: whole, on cells; GFP-tagged; also called human LILRA1; CHO-LILRA1
The assay is described as follows: flow cytometry on CHO-LILRA1 cells, non-linear fit of the curves of FIG. 26E.

Assay [2] addresses T2, cynomolgus (monkey) LILRB2 expressed on CHO cells (cynomolgus monkey).
T2 construct: whole, on cells; Putative orthologue; also called cynoLILRB2; cynoRB2
Kind of assay: flow cytometry on CHO-cynoLILRB2 cells.

In assay [3] the target is T3, LILRB3 expressed on cells (human, UniProt O75022 24-631).
T3 construct: whole, on cells; Expressed with a GFP tag from the bought plasmid; also called human LILRB3; CHO-LILRB3
Kind of assay: flow cytometry on CHO-LILRB3 cells.

Assay [4] has as its target T4, LILRB1-ECD-HIS (SinoBiological Cat #: 16014-H02H) (human, UniProt Q8NHL6 24-461).
T4 construct: Bought protein; also called monomeric antigen LILRB1-ECD-HIS; not shown: His tag
Kind of assay: BLI (Gator), trace labelled 5 µg/mL; unit taken from the Average KD line.

Assay [5] addresses T5, human LILRB2 expressed on cells (human, UniProt Q8N423 22-597).
T5 construct: In 293T cells it was expressed from pCMV3-LILRB2-GFP; also called CHO-LILRB2; Jurkat-LILRB2
Kind of assay: flow cytometry on CHO-LILRB2 cells, non-linear fit of the curves of FIG. 26B.

The target in assay [6] is T4, LILRB1-ECD-HIS (SinoBiological Cat #: …). Kind of assay: BLI (Gator), trace labelled 2 µg/mL; unit taken from the Average KD line.
Assay [7] deals with T3, LILRB3 expressed on cells. The assay is described as follows: flow cytometry on CHO-LILRB3 cells, non-linear fit of the curves of FIG. 26C.
Assay [8] deals with T6, LILRB2-ECD-HIS (SinoBiological Cat #: 14132-H02H) (human, UniProt Q8N423 22-460).
T6 construct: Bought protein; also called monomeric antigen LILRB2-ECD-HIS; not shown: His tag
Kind of assay: SPR (Carterra), LILRB2-ECD-his.

For assay [9], the target named is T6, LILRB2-ECD-HIS (SinoBiological Cat #: …). Kind of assay: BLI (Gator), trace labelled 5 µg/mL; unit taken from the Average KD line.
The target in assay [10] is T5, human LILRB2 expressed on cells. The assay is described as follows: flow cytometry, CHO-LILRB2 cells.
Assay [11] has as its target T4, LILRB1-ECD-HIS (SinoBiological Cat #: …). Kind of assay: BLI (Gator), RB1-ECD-his.
In assay [12] the target is T7, human LILRB1 expressed on cells (human, UniProt Q8NHL6 24-650).
T7 construct: In 293T cells it was expressed from pCMV3-LILRB1-GFP; also called CHO-LILRB1; Jurkat-LILRB1
The assay is described as follows: flow cytometry on CHO-LILRB1 cells (CHO-RB1), titrated antibody, labelled anti-human Fc, gMFI.

Assay [13] addresses T8, LILRA6 expressed on cells (human, UniProt Q6PI73 24-481).
T8 construct: whole, on cells; GFP-tagged; also called human LILRA6; CHO-LILRA6
Kind of assay: flow cytometry on CHO-LILRA6 cells, non-linear fit of the curves of FIG. 26F.

In assay [14] the target is T5, human LILRB2 expressed on cells. Kind of assay: flow cytometry on CHO-LILRB2 cells (CHO-RB2), titrated antibody, labelled anti-human Fc, gMFI.
Assay [15] addresses T2, cynomolgus (monkey) LILRB2 expressed on …. The assay is described as follows: flow cytometry on CHO-cynoLILRB2 cells, non-linear fit of the curves of FIG. 26D.
The target in assay [16] is T5, human LILRB2 expressed on cells. The assay is described as follows: flow cytometry, Jurkat-LILRB2 cells; blocked ligand: APC HLA-G monomer tetramer.
For assay [17], the target named is T4, LILRB1-ECD-HIS (SinoBiological Cat #: …). Kind of assay: BLI (Gator Prime), antibody on anti-hIgG Fc probe, monomeric LILRB1-ECD-HIS in solution.
In assay [18] the target is T9, LILRA3 expressed on 293T cells (UniProt Q8N6C8 24-439, limits assumed).
T9 construct: whole, on cells; GFP-tagged, transient
Kind of assay: flow cytometry on 293T cells transiently expressing LILRA3, APC anti-human Fc; gMFI as fold to IgG staining.

T6 sequence (Q8N423 other isoform, or with tags, fused parts or gaps H02H H02H): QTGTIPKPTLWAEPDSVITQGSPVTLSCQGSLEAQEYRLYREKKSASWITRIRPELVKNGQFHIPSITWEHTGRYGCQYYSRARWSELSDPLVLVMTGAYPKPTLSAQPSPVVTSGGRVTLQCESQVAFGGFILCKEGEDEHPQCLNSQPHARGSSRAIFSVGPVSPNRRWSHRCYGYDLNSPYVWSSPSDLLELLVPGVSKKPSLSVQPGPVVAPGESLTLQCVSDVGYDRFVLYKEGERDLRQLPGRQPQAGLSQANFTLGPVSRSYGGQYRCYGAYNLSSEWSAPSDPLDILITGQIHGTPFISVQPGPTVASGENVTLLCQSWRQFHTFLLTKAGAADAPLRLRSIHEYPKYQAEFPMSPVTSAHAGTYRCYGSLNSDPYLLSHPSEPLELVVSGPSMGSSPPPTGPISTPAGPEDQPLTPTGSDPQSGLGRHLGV
T5 sequence (Q8N423 other isoform, or with tags, fused parts or gaps limits assumed): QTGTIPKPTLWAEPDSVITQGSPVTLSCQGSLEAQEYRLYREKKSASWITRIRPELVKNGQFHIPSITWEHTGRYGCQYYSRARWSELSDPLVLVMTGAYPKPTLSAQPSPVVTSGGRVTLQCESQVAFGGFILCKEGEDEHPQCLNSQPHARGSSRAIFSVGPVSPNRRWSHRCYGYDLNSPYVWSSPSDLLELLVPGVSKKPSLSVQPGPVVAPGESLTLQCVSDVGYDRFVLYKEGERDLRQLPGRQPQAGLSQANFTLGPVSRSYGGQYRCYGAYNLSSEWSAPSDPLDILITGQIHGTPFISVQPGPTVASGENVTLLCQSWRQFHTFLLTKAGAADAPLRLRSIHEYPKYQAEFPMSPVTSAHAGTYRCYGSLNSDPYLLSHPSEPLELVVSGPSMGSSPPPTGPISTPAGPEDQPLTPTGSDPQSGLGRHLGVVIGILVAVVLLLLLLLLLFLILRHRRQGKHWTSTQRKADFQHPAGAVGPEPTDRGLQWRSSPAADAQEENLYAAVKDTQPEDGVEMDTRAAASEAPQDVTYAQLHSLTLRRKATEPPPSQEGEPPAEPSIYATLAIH
T4 sequence (Q8NHL6 other isoform, or with tags, fused parts or gaps H02H H02H): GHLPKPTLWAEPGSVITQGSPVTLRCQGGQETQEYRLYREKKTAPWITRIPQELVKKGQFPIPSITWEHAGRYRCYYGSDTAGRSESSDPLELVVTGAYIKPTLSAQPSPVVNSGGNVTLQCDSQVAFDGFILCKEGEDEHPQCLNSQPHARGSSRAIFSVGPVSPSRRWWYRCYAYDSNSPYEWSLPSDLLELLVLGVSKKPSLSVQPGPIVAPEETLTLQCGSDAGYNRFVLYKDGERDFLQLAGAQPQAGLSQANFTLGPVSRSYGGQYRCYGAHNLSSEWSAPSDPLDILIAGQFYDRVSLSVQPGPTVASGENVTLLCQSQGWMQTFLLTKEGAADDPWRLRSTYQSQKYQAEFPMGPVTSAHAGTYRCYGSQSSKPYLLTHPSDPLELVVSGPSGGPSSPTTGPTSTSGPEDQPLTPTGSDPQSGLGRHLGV
T1 sequence (O75019 17-489): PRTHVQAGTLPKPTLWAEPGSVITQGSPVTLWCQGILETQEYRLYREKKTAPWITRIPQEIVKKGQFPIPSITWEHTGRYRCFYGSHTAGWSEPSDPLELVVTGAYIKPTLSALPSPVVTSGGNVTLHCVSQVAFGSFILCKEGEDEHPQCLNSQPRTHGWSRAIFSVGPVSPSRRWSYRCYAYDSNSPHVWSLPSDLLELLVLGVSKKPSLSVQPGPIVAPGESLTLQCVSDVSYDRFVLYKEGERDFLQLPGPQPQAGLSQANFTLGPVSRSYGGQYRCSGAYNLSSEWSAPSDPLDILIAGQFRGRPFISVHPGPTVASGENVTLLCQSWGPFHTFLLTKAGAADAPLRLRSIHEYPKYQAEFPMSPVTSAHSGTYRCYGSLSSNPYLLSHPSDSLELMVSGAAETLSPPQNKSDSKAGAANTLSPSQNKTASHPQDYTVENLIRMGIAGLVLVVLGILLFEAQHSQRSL
T8 sequence (Q6PI73 24-481): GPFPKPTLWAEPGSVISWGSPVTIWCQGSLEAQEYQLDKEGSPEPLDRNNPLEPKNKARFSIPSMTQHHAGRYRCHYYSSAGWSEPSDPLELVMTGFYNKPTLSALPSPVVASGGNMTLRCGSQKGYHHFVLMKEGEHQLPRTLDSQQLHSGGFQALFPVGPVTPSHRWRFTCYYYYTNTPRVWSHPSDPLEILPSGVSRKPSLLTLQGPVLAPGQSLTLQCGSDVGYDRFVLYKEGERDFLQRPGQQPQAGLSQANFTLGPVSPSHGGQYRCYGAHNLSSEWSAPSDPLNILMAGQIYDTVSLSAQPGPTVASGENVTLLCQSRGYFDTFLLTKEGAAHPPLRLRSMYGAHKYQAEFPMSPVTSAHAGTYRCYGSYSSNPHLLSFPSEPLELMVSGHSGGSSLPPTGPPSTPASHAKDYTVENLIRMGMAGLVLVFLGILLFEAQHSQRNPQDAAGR
T9 sequence (Q8N6C8 24-439 limits assumed): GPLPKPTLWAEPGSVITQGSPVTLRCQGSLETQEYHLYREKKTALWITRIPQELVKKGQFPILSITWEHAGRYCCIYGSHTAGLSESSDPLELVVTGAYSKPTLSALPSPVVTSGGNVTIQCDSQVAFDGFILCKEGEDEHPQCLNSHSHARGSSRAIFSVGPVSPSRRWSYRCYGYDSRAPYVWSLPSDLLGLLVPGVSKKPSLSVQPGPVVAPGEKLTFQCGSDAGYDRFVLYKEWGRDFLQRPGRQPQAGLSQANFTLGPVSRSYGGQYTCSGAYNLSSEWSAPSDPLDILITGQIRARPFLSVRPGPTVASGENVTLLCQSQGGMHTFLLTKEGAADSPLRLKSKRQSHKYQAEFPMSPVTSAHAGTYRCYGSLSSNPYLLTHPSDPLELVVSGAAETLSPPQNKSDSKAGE
T7 sequence (Q8NHL6 other isoform, or with tags, fused parts or gaps limits assumed): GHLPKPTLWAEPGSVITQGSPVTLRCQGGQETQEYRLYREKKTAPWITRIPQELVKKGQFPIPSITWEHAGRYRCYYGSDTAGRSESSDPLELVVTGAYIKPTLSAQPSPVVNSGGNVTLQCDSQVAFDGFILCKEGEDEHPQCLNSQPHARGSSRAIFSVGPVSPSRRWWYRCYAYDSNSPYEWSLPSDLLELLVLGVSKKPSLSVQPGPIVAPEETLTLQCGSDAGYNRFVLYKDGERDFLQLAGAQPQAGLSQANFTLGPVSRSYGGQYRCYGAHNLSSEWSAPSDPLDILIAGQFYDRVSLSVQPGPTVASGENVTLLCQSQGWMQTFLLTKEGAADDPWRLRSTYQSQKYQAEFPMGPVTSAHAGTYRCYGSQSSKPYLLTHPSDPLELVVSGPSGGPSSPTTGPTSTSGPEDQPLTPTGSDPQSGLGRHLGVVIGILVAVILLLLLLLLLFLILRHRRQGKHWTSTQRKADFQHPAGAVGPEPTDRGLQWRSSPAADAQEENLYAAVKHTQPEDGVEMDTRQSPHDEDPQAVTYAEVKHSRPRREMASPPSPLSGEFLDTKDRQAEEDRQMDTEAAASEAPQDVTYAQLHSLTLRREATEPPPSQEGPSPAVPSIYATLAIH

B1: D2M002-002 (antibody, V domains shown)
VH: EVQLQQSGPELVKPGASVKMSCKASGYTFTRYVMHWVKQKPGQGLEWIGYINPNNDGTKYNEKFKGKVTLTSDKSSSTAYMELSSLTSEDSAVYYCARGDLEILPYYDHARNAMDYWGQGTSVTVSS
VL: DVQMIQSPASLSASVGETVTITCRASENIYSYLAWYQQKQGKSPQLLVYNAKTLAEGVPSRFSGSGSGTQFSLKINSLQPEDFGSYYCQHFWSTPPTFGGGTKLEIK
notes: Hit from immunised mice; also called clone #2; anti-LILRB1/2 clone #2
As for B1, the EC50 is 0.474 µg/mL in assay [1]; 5.5 µg/mL in assay [2]; 4 µg/mL and 26.6 nM in [3]; 0.128 µg/mL in assay [5]; 12.8 µg/mL in assay [7]; 0.21 µg/mL in assay [10]. Also, the values for the EC50 in assay [13] and in [15] were 9.46 µg/mL and 2.85 µg/mL, respectively. Moreover, the MaxMFI is 19500 in [1] and 32600 in [5]. Moreover, the Kd stood at 3.61 nM in assay [4]; 3.45 nM in [6]; 0.44 nM in assay [8]; 0.351 nM in [9]; 2.12 nM in [11]; 3.4 nM in assay [17]. In addition, the koff in assay [8] came to 0.0002 s⁻¹. The kon in assay [8] worked out at 456000 M⁻¹ s⁻¹. Moreover, the “gMFI (max)” value in assay [10] is 21900. Moreover, the “EC50 (read off the curve)” value in assay [12] was roughly 0.2 µg/mL; in assay [14] it was roughly 0.1 µg/mL. In assay [16], the IC50 turned out to be 0.065 µg/mL. For the same molecule, the binding result in assay [18] is “no binding (tested: 5 µg/mL)”.

The record behind these values is US20250171534A1 (D2M BIOTHERAPEUTICS, published 2025).
